Where no end group is shown, it is not given here. The star is where a group is joined. Octanoyl = CCCCCCCC(=O)*

These results are taken from patent US20060269550A1.

Assay [1] deals with anti-hGhrelin Fab 2291. Briefly: competitive ELISA; competitor at 1 µg/ml preincubated with Fab 2291 0.1 µg/ml, OD of Fab bound to BSA-hGhrelin wells. For orientation: An ELISA detects its analyte on a solid surface through an enzyme-linked reagent.
The target of assay [2] is anti-hGhrelin Fab 2291. The assay is described as follows: competitive ELISA; competitor at 0.2 µg/ml preincubated with Fab 2291 0.1 µg/ml, OD of Fab bound to BSA-hGhrelin wells.
Assay [3] addresses anti-hGhrelin Fab 2291. The assay is described as follows: competitive ELISA; competitor at 5 µg/ml preincubated with Fab 2291 0.1 µg/ml, OD of Fab bound to BSA-hGhrelin wells.

Sequence of anti-hGhrelin Fab 2291 (VH, as listed by the source, chain 1 of 2): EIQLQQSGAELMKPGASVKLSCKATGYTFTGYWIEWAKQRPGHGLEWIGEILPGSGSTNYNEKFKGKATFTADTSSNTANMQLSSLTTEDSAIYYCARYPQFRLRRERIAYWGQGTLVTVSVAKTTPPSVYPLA
Sequence of anti-hGhrelin Fab 2291 (VL, as listed by the source, chain 2 of 2): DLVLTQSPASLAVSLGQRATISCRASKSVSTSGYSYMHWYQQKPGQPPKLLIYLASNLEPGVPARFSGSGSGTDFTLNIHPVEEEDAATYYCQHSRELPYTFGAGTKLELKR

For the molecule GSSFLSPEHQRVQQRKESKKPPAKLQPR [des-acyl-hGhrelin, full-length, non-acylated human ghrelin], the Ave. OD (490 nm) is 0.663 OD (490 nm) with anti-hGhrelin Fab 2291 [1], 0.633 OD (490 nm) with anti-hGhrelin Fab 2291 [2] and 0.729 OD (490 nm) with anti-hGhrelin Fab 2291 [3].

In the case of GSSFLSPEH(Octanoyl)QRVQQRKESKKPPAKLQPR [hGhrelin-His9-acylated], the values for the Ave. OD (490 nm) with anti-hGhrelin Fab 2291 [1], with anti-hGhrelin Fab 2291 [2] and with anti-hGhrelin Fab 2291 [3] were 0.69 OD (490 nm), 0.607 OD (490 nm) and 0.702 OD (490 nm), respectively.
